This data set concerns the molecule itself. In words: crystal structure.

B1: CusB periplasmic membrane fusion protein (natural protein, E. coli, UniProt P77239 29-407, looked up)
chain: EPPAEKTSTAERKILFWYDPMYPNTRFDKPGKSPFMDMDLVPKYADEESSASGVRIDPTQTQNLGVKTATVTRGPLTFAQSFPANVSYNEYQYAIVQARAAGFIDKVYPLTVGDKVQKGTPLLDLTIPDWVEAQSEYLLLRETGGTATQTEGILERLRLAGMPEADIRRLIATQKIQTRFTLKAPIDGVITAFDLRAGMNIAKDNVVAKIQGMDPVWVTAAIPESIAWLVKDASQFTLTVPARPDKTLTIRKWTLLPGVDAATRTLQLRLEVDNADEALKPGMNAWLQLNTASEPMLLIPSQALIDTGSEQRVITVDADGRFVPKRVAVFQASQGVTALRSGLAEGEKVVSSGLFLIDSEANISGALERMRSESATHAH
As to B1, the “stoichiometry N” value was 6.
